Test [1] concerns the target T1, Ep-CAM on the surface of HT-29 human colorectal carcinoma cells (human, UniProt P16422 24-314).
T1 construct: The gene was obtained from HT-29 mRNA; also called epithelial cell adhesion molecule; Ep-CAM expressing HT-29 cells
T1 sequence: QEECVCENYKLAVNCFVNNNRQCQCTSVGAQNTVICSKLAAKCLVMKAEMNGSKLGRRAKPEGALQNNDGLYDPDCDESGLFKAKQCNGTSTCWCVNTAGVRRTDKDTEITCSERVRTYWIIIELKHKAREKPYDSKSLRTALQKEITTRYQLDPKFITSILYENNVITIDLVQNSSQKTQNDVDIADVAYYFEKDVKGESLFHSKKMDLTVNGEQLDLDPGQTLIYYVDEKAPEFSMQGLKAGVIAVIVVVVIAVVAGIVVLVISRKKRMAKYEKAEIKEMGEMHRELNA
The test is described as follows: competition with 125I-labeled chimeric ING-1 on HT-29 cells. The source says:
Vectors constructed according to Example 1 encoding human engineered ING-1 light and heavy chain genes, for example, pING1937 (low risk human engineered ING-1) and pING1944 (low plus moderate risk human engineered ING-1) were linearized by XbaI and used to transfect serum-free adapted CHO-K1 followed by selection of G418-resistant transfectants. Protein was purified from shake flask culture supernatants by passage over a protein A column. To evaluate the binding activity of the produced immunoglobulin polypeptides, competition binding assays with the human carcinoma cell line HT-29 were performed. This colorectal carcinoma cell line expresses a molecule known as Ep-CAM on its surface. Ep-CAM is recognized by immunoglobulin polypeptides having the antigen binding specificity of the mouse-human chimeric ING-1 antibody produced by cell line HB9812 as produced by ATCC.
HT-29 cells were grown to confluency (˜2×10⁵ cells/well) in 96 well plates. Mouse-human chimeric ING-1 was labeled with Na¹²⁵I (Iodo-gen®, Pierce). The competition conditions included in a 100 μl assay volume, 0.1 nM labeled mouse-human chimeric ING-1, 2-fold serial dilutions of unlabeled immunoglobulin polypeptides, for example, as produced by cells transfected with pING1937 and pING1944. […] Labeled cells were removed with NaOH and counted. […]

In the next test the target is T2, soluble human Ep-CAM (human, UniProt P16422 24-265).
T2 construct: It was truncated by a stop codon at amino acid position 266 and secreted from CHO-K1 cells (pING1954, Clone 51); No signal peptide limits are stated; Multimers were seen on a non-reduced gel; also called sEp-CAM; truncated Ep-CAM
T2 sequence: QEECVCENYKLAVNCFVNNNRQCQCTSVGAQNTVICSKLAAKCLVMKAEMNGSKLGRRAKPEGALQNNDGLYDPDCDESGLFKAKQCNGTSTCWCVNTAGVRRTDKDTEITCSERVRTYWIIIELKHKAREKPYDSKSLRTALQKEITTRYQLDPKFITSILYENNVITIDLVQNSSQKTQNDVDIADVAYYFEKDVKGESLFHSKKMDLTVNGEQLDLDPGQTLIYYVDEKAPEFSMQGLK
The test is described as follows: ELISA, soluble Ep-CAM coated at 0.25 ug/mL, detection with AP-goat anti-human IgG.

In test [2] the target is T1, Ep-CAM on the surface of HT-29 human …. The test is described as follows: competition with iodinated low risk ING-1 on HT-29 cells (FIG. 17).
For test [3] the target is unchanged. The test is described as follows: competition binding on HT-29 cells (FIG. 16). Here is the method:
HT-29 cells were grown to confluency (˜2×10⁵ cells/well) in 96 well plates. Mouse-human chimeric ING-1 was labeled with Na¹²⁵I (Iodo-gen®, Pierce). The competition conditions included in a 100 μl assay volume, 0.1 nM labeled mouse-human chimeric ING-1, 2-fold serial dilutions of unlabeled immunoglobulin polypeptides, for example, as produced by cells transfected with pING1937 and pING1944. The labeled and unlabeled immunoglobulin polypeptides were incubated with HT-29 cells at 4° C. for 5 hours followed by washing. Labeled cells were removed with NaOH and counted. Data analysis was performed using Ligand, [Munson and Redbard, […] 107: 220-239 (1980)].
Human engineered ING-1 modified at the low risk plus moderate risk positions was also evaluated using competition binding assays. No differences in binding between the mouse-human chimeric and the human engineered (low risk) ING-1 was observed.

Substitutions are numbered along the chain they refer to.

B1: human engineered (low risk) ING-1 (antibody, human IgG1, kappa)
VL: DIVMTQSALSNPVTLGESGSISCRSSKSLLHSNGITYLYWYLQKPGQSPQLLIYQMSNRASGVPDRFSSSGSGTDFTLKISRVEAEDVGVYYCAQNLELPRTFGQGTKLEMKRTVAAPSVFIFPPSDEQLKSGTASVVCLLNNFYPREAKVQWKVDNALQSGNSQESVTEQDSKDSTYSLSSTLTLSKADYEKHKVYACEVTHQGLSSPVTKSFNRGEC
VH: not shown
notes: It has 6 low risk changes in VL and 13 in VH; also called human engineered ING-1; ING-1(heMab)
For B1, the binding result (in test [1]; with soluble human Ep-CAM) was “binds” each time.

B2: modified ING-1 with low risk light chain and low plus moderate risk heavy chain (antibody, human IgG1, kappa)
VL: B1 VL
VH: not shown
notes: It is an IgG purified on protein A with human kappa and gamma-1 constant regions; also called combination of a low risk light chain with a low plus moderate risk heavy chain
As to B2, the binding result in test [2] was “binds”.

B3: modified ING-1 with low plus moderate risk light chain and low risk heavy chain (antibody, human IgG1, kappa)
VL: B1 VL with A8P, N11L, L15P, S18P
VH: not shown
notes: It is an IgG purified on protein A with human kappa and gamma-1 constant regions; also called low risk heavy chain with a low plus moderate risk light chain
On to B3, for which, in test [2], the binding result is “binds”.

B4: human engineered (low plus moderate risk) ING-1 (antibody, human IgG1, kappa)
VL: B1 VL with A8P, N11L, L15P, S18P
VH: not shown
notes: IgG with human kappa and gamma-1 constant regions, built like pING1937; It has 10 low plus moderate risk changes in VL and 20 in VH; also called product of pING1944
B4: in test [3], the binding result is “binds”.

B5: mouse-human chimeric ING-1 antibody (as produced by cell line HB9812, ATCC) (antibody, human IgG1, kappa, V domains shown)
VH: QIQLVQSGPELKKPGETVKISCKASGYTFTKYGMNWVKQAPGKGLKWMGWINTYTEEPTYGDDFKGRFAFSLETSASTANLQINNLKSEDTATYFCARFGSAVDYWGQGTSVTVSS
VL: DIVMTQAAFSNPVTLGTSGSISCRSSKSLLHSNGITYLYWYLQKPGQSPQLLIYQMSNLASGVPDRFSSSGSGTDFTLRISRVEAEDVGVYYCAQNLELPRTFGGGTKLEMKR
notes: The labelled tracer form was iodinated with Na125I
Regarding B5, the binding result in test [1] is recorded as “binds”.

Source of the values: patent publication US20080241126A1 (XOMA TECHNOLOGY, published 2008).
